Tests used:
[1] = system: HeLa Kyoto; assay: solubility change mitosis vs G1/S (difference of NP-40 vs SDS log2 ratios) (log2 ratio difference); higher = more soluble in mitosis
[2] = system: HeLa Kyoto; assay: solubility in G1/S (NP-40 vs SDS abundance) (log2 ratio); higher = more soluble; details: cell cycle stage: G1/S
[3] = system: HeLa Kyoto; assay: thermal stability score vs G1/S (z-score of summed log2 fold changes over temperatures); higher = more thermally stable than in G1/S
[4] = system: HeLa Kyoto; assay: melting temperature (median over replicates), in situ; higher = more thermally stable
[5] = cell cycle stage: early G1 (4.5 h after nocodazole release)
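Wherever melting temperature (median over replicates), in situ is given: HeLa Kyoto cells synchronized by double thymidine or nocodazole block, proteins quantified by TMT10plex mass spectrometry, three independent biological replicates.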
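Wherever solubility change mitosis vs G1/S (difference of NP-40 vs SDS log2 ratios) is given: synchronized HeLa Kyoto cells (double thymidine block for G1/S, nocodazole release for mitosis), protein amounts in NP-40 versus SDS lysates quantified by mass spectrometry, three biological replicates.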
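Wherever solubility in G1/S (NP-40 vs SDS abundance) is given: HeLa Kyoto cells arrested at G1/S by double thymidine block, proteins quantified by TMT10plex mass spectrometry in mild NP-40 versus SDS extracts, three biological replicates.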
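Wherever thermal stability score vs G1/S (z-score of summed log2 fold changes over temperatures) is given: synchronized HeLa Kyoto cells, proteins quantified by TMT10plex mass spectrometry, three biological replicates, mitosis taken 0.5 h after nocodazole release, G1/S directly after double thymidine block.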

MAAGFGRCCRVLRSISRFHWRSQHTKANRQREPGLGFSFEFTEQQKEFQATARKFAREEIIPVAAEYDKTGEYPVPLIRRAWELGLMNTHIPENCGGLGLGTFDACLISEELAYGCTGVQTAIEGNSLGQMPIIIAGNDQQKKKYLGRMTEEPLMCAYCVTEPGAGSDVAGIKTKAEKKGDEYIINGQKMWITNGGKANWYFLLARSDPDPKAPANKAFTGFIVEADTPGIQIGRKELNMGQRCSDTRGIVFEDVKVPKENVLIGDGAGFKVAMGAFDKTRPVVAAGAVGLAQRALDEATKYALERKTFGKLLVEHQAISFMLAEMAMKVELARMSYQRAAWEVDSGRRNTYYASIAKAFAGDIANQLATDAVQILGGNGFNTEYPVEKLMRDAKIYQIYEGTSQIQRLIVAREHIDKYKN [ACADM]
solubility change mitosis (log2) [1]: -0.0323 | solubility in G1/S (log2) [2]: 0.248 | thermal stability score [3, 5]: -1.04 | thermal stability score ([3]; cell cycle stage: mitosis): -2.26 | melting temperature ([4]; cell cycle stage: G1/S): 54.7 °C | melting temperature ([4]; cell cycle stage: mitosis): 54.7 °C

MIRRVLPHGMGRGLLTRRPGTRRGGFSLDWDGKVSEIKKKIKSILPGRSCDLLQDTSHLPPEHSDVVIVGGGVLGLSVAYWLKKLESRRGAIRVLVVERDHTYSQASTGLSVGGICQQFSLPENIQLSLFSASFLRNINEYLAVVDAPPLDLRFNPSGYLLLASEKDAAAMESNVKVQRQEGAKVSLMSPDQLRNKFPWINTEGVALASYGMEDEGWFDPWCLLQGLRRKVQSLGVLFCQGEVTRFVSSSQRMLTTDDKAVVLKRIHEVHVKMDRSLEYQPVECAIVINAAGAWSAQIAALAGVGEGPPGTLQGTKLPVEPRKRYVYVWHCPQGPGLETPLVADTSGAYFRREGLGSNYLGGRSPTEQEEPDPANLEVDHDFFQDKVWPHLALRVPAFETLKVQSAWAGYYDYNTFDQNGVVGPHPLVVNMYFATGFSGHGLQQAPGIGRAVAEMVLKGRFQTIDLSPFLFTRFYLGEKIQENNII [FOXRED1]
solubility change mitosis (log2) [1]: 0.0476 | solubility in G1/S (log2) [2]: -0.0625 | thermal stability score [3, 5]: 1.19 | thermal stability score ([3]; cell cycle stage: mitosis): 0.0541 | melting temperature ([4]; cell cycle stage: G1/S): 51.5 °C | melting temperature ([4]; cell cycle stage: mitosis): 51.6 °C

MEQLSDEEIDHGAEEDSDKEDQDLDKMFGAWLGELDKLTQSLDSDKPMEPVKRSPLRQETNMANFSYRFSIYNLNEALNQGETVDLDALMADLCSIEQELSSIGSGNSKRQITETKATQKLPVSRHTLKHGTLKGLSSSSNRIAKPSHASYSLDDVTAQLEQASLSMDEAAQQSVLEDTKPLVTNQHRRTASAGTVSDAEVHSISNSSHSSITSAASSMDSLDIDKVTRPQELDLTHQGQPITEEEQAAKLKAEKIRVALEKIKEAQVKKLVIRVHMSDDSSKTMMVDERQTVRQVLDNLMDKSHCGYSLDWSLVETVSELQMERIFEDHENLVENLLNWTRDSQNKLIFMERIEKYALFKNPQNYLLGKKETAEMADRNKEVLLEECFCGSSVTVPEIEGVLWLKDDGKKSWKKRYFLLRASGIYYVPKGKAKVSRDLVCFLQLDHVNVYYGQDYRNKYKAPTDYCLVLKHPQIQKKSQYIKYLCCDDVRTLHQWVNGIRIAKYGKQLYMNYQEALKRTESAYDWTSLSSSSIKSGSSSSSIPESQSNHSNQSDSGVSDTQPAGHVRSQSIVSSVFSEAWKRGTQLEESSKARMESMNRPYTSLVPPLSPQPKIVTPYTASQPSPPLPPPPPPPPPPPPPPPPPPPPLPSQSAPSAGSAAPMFVKYSTITRLQNASQHSGALFKPPTPPVMQSQSVKPQILVPPNGVVPPPPPPPPPPTPGSAMAQLKPAPCAPSLPQFSAPPPPLKIHQVQHITQVAPPTPPPPPPIPAPLPPQAPPKPLVTIPAPTSTKTVAPVVTQAAPPTPTPPVPPAKKQPAFPASYIPPSPPTPPVPVPPPTLPKQQSFCAKPPPSPLSPVPSVVKQIASQFPPPPTPPAMESQPLKPVPANVAPQSPPAVKAKPKWQPSSIPVPSPDFPPPPPESSLVFPPPPPSPVPAPPPPPPPTASPTPDKSGSPGKKTSKTSSPGGKKPPPTPQRNSSIKSSSGAEHPEPKRPSVDSLVSKFTPPAESGSPSKETLPPPAAPPKPGKLNLSGVNLPGVLQQGCVSAKAPVLSGRGKDSVVEFPSPPSDSDFPPPPPETELPLPPIEIPAVFSGNTSPKVAVVNPQPQQWSKMSVKKAPPPTRPKRNDSTRLTQAEISEQPTMATVVPQVPTSPKSSLSVQPGFLADLNRTLQRKSITRHGSLSSRMSRAEPTATMDDMALPPPPPELLSDQQKAGYGGSHISGYATLRRGPPPAPPKRDQNTKLSRDW [RAPH1]
solubility change mitosis (log2) [1]: -0.187 | solubility in G1/S (log2) [2]: 0.0855 | thermal stability score [3, 5]: -1.35 | thermal stability score ([3]; cell cycle stage: mitosis): -0.404 | melting temperature ([4]; cell cycle stage: G1/S): 52 °C | melting temperature ([4]; cell cycle stage: mitosis): 52.3 °C

ZFYVE16
solubility change mitosis (log2) [1]: -0.171 | solubility in G1/S (log2) [2]: -0.0282 | thermal stability score [3, 5]: -2.53 | thermal stability score ([3]; cell cycle stage: mitosis): -1.48 | melting temperature ([4]; cell cycle stage: G1/S): 53.2 °C | melting temperature ([4]; cell cycle stage: mitosis): 52.7 °C

MSHTEVKLKIPFGNKLLDAVCLVPNKSLTYGIILTHGASGDMNLPHLMSLASHLASHGFFCLRFTCKGLNIVHRIKAYKSVLNYLKTSGEYKLAGVFLGGRSMGSRAAASVMCHIEPDDGDDFVRGLICISYPLHHPKQQHKLRDEDLFRLKEPVLFVSGSADEMCEKNLLEKVAQKMQAPHKIHWIEKANHSMAVKGRSTNDVFKEINTQILFWIQEITEMDKKCH [TEX30]
solubility change mitosis (log2) [1]: -0.146 | solubility in G1/S (log2) [2]: 0.199 | thermal stability score [3, 5]: 0.36 | thermal stability score ([3]; cell cycle stage: mitosis): 0.539 | melting temperature ([4]; cell cycle stage: G1/S): 48.7 °C | melting temperature ([4]; cell cycle stage: mitosis): 49 °C

MTTFGAVAEWRLPSLRRATLWIPQWFAKKAIFNSPLEAAMAFPHLQQPSFLLASLKADSINKPFAQQCQDLVKVIEDFPAKELHTIFPWLVESIFGSLDGVLVGWNLRCLQGRVNPVEYSIVMEFLDPGGPMMKLVYKLQAEDYKFDFPVSYLPGPVKASIQECILPDSPLYHNKVQFTPTGGLGLNLALNPFEYYIFFFALSLITQKPLPVSLHVRTSDCAYFILVDRYLSWFLPTEGSVPPPLSSSPGGTSPSPPPRTPAIPFASYGLHHTSLLKRHISHQTSVNADPASHEIWRSETLLQVFVEMWLHHYSLEMYQKMQSPHAKLEVLHYRLSVSSALYSPAQPSLQALHAYQESFTPTEEHVLVVRLLLKHLHAFANSLKPEQASPSAHSHATSPLEEFKRAAVPRFVQQKLYLFLQHCFGHWPLDASFRAVLEMWLSYLQPWRYAPDKQAPGSDSQPRCVSEKWAPFVQENLLMYTKLFVGFLNRALRTDLVSPKHALMVFRVAKVFAQPNLAEMIQKGEQLFLEPELVIPHRQHRLFTAPTFTGSFLSPWPPAVTDASFKVKSHVYSLEGQDCKYTPMFGPEARTLVLRLAQLITQAKHTAKSISDQCAESPAGHSFLSWLGFSSMDTNGSYTANDLDEMGQDSVRKTDEYLEKALEYLRQIFRLSEAQLRQFTLALGTTQDENGKKQLPDCIVGEDGLILTPLGRYQIINGLRRFEIEYQGDPELQPIRSYEIASLVRTLFRLSSAINHRFAGQMAALCSRDDFLGSFCRYHLTEPGLASRHLLSPVGRRQVAGHTRGPRLSLRFLGSYRTLVSLLLAFFVASLFCVGPLPCTLLLTLGYVLYASAMTLLTERGKLHQP [SMPD4]
solubility change mitosis (log2) [1]: 0.185 | solubility in G1/S (log2) [2]: -0.601 | thermal stability score [3, 5]: -0.683 | thermal stability score ([3]; cell cycle stage: mitosis): -0.99 | melting temperature ([4]; cell cycle stage: G1/S): 51.7 °C | melting temperature ([4]; cell cycle stage: mitosis): 50.2 °C

MQQDGLGVGTRNGSGKGRSVHPSWPWCAPRPLRYFGRDARARRAQTAAMALLAGGLSRGLGSHPAAAGRDAVVFVWLLLSTWCTAPARAIQVTVSNPYHVVILFQPVTLPCTYQMTSTPTQPIVIWKYKSFCRDRIADAFSPASVDNQLNAQLAAGNPGYNPYVECQDSVRTVRVVATKQGNAVTLGDYYQGRRITITGNADLTFDQTAWGDSGVYYCSVVSAQDLQGNNEAYAELIVLGRTSGVAELLPGFQAGPIEDWLFVVVVCLAAFLIFLLLGICWCQCCPHTCCCYVRCPCCPDKCCCPEALYAAGKAATSGVPSIYAPSTYAHLSPAKTPPPPAMIPMGPAYNGYPGGYPGDVDRSSSAGGQGSYVPLLRDTDSSVASEVRSGYRIQASQQDDSMRVLYYMEKELANFDPSRPGPPSGRVERAMSEVTSLHEDDWRSRPSRGPALTPIRDEEWGGHSPRSPRGWDQEPAREQAGGGWRARRPRARSVDALDDLTPPSTAESGSRSPTSNGGRSRAYMPPRSRSRDDLYDQDDSRDFPRSRDPHYDDFRSRERPPADPRSHHHRTRDPRDNGSRSGDLPYDGRLLEEAVRKKGSEERRRPHKEEEEEAYYPPAPPPYSETDSQASRERRLKKNLALSRESLVV
solubility change mitosis (log2) [1]: 0.133 | solubility in G1/S (log2) [2]: -0.186 | thermal stability score [3, 5]: -3.76 | thermal stability score ([3]; cell cycle stage: mitosis): -1.62 | melting temperature ([4]; cell cycle stage: G1/S): 53.8 °C | melting temperature ([4]; cell cycle stage: mitosis): 54.6 °C

MSDKLPYKVADIGLAAWGRKALDIAENEMPGLMRMRERYSASKPLKGARIAGCLHMTVETAVLIETLVTLGAEVQWSSCNIFSTQDHAAAAIAKAGIPVYAWKGETDEEYLWCIEQTLYFKDGPLNMILDDGGDLTNLIHTKYPQLLPGIRGISEETTTGVHNLYKMMANGILKVPAINVNDSVTKSKFDNLYGCRESLIDGIKRATDVMIAGKVAVVAGYGDVGKGCAQALRGFGARVIITEIDPINALQAAMEGYEVTTMDEACQEGNIFVTTTGCIDIILGRHFEQMKDDAIVCNIGHFDVEIDVKWLNENAVEKVNIKPQVDRYRLKNGRRIILLAEGRLVNLGCAMGHPSFVMSNSFTNQVMAQIELWTHPDKYPVGVHFLPKKLDEAVAEAHLGKLNVKLTKLTEKQAQYLGMSCDGPFKPDHYRY [AHCY]
solubility change mitosis (log2) [1]: -0.0568 | solubility in G1/S (log2) [2]: 0.0748 | thermal stability score [3, 5]: -2.93 | thermal stability score ([3]; cell cycle stage: mitosis): -2.39 | melting temperature ([4]; cell cycle stage: G1/S): 58.9 °C | melting temperature ([4]; cell cycle stage: mitosis): 59.3 °C

Reference: the supplement of paper PMC5998384
